The results in this text go back to article PMC6378141 (Molecular psychiatry, 2018).

The assay deals with T1, D2R(L123W:R132L), short isoform, fused to Rluc8 (human, UniProt P14416-2 1-414, L123W | R132L).
T1 sequence: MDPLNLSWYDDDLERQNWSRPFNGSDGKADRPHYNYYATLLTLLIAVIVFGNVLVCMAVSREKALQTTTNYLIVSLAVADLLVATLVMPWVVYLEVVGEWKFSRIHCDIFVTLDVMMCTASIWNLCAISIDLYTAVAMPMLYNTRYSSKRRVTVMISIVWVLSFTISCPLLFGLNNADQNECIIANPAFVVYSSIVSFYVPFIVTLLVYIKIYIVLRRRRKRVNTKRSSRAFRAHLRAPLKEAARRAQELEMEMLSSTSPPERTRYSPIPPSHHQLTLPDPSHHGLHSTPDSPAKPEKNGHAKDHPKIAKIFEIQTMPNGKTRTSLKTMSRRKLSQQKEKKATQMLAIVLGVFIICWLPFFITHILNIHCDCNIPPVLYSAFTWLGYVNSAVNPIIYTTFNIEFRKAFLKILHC
The assay is described as follows: FRET or BRET. A general note: BRET reads energy transfer from a luciferase to a nearby fluorophore.

B1: bovine arrestin-2 fused to mVenus at its N-terminus (natural protein)
chain: MGDKGTRVFKKASPNGKLTVYLGKRDFVDHIDLVEPVDGVVLVDPEYLKERRVYVTLTCAFRYGREDLDVLGLTFRKDLFVANVQSFPPAPEDKKPLTRLQERLIKKLGEHAYPFTFEIPPNLPCSVTLQPGPEDTGKACGVDYEVKAFCAENLEEKIHKRNSVRLVIRKVQYAPERPGPQPTAETTRQFLMSDKPLHLEASLDKEIYYHGEPISVNVHVTNNTNKTVKKIKISVRQYADICLFNTAQYKCPVAMEEADDTVAPSSTFCKVYTLTPFLANNREKRGLALDGKLKHEDTNLASSTLLREGANREILGIIVSYKVKVKLVVSRGGLLGDLASSDVAVELPFTLMHPKPKEEPPHREVPEHETPVDTNLIELDTNDDDIVFEDFARQRLKGMKDDKEEEEDGTGSPRLNDR
Consider B1, for which the “maximal DA-induced recruitment, % of D2R-WT” value was 132 % of D2R-WT.
